Laboratory results reported in patent US20140322233A1 (Takeda / Millennium, published 2014).

What was measured:
rat GCC = molecular target: T1, rat GCC (rat, UniProt P23897 23-429, limits assumed); experiment: not described (FIG. 4: ELISA on GCC orthologs)
T1 construct: Construct used for the cross-reactivity test is not described
T1 sequence (looked up): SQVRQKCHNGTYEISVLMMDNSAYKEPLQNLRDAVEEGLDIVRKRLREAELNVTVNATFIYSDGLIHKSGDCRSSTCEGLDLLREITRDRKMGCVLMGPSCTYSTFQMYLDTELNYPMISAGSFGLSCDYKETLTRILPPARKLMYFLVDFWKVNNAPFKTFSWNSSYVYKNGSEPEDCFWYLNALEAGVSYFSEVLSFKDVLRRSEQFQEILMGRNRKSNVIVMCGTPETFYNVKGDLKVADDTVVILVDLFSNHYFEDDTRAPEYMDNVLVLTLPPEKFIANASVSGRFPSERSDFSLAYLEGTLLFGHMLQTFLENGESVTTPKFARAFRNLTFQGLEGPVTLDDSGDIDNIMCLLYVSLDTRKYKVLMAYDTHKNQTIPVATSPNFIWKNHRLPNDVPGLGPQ

mouse GCC = molecular target: T2, mouse GCC (mouse, UniProt Q3UWA6 20-433, limits assumed); experiment: not described (FIG. 4: ELISA on GCC orthologs)
T2 construct: Construct used for the cross-reactivity test is not described
T2 sequence (looked up): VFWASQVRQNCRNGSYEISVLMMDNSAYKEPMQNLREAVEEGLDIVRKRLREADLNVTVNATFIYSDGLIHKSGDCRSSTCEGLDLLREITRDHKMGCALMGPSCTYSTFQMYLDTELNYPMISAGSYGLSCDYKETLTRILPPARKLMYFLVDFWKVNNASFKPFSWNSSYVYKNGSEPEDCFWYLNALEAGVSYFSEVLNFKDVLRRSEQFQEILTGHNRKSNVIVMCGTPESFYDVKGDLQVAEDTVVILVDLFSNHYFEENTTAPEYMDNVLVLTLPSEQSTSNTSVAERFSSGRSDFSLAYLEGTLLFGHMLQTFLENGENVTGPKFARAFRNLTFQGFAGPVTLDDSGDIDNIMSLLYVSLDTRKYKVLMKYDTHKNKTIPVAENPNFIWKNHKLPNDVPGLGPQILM

[1] = molecular target: T3, human GCC, full length with myc tag (293-GCC#2 cells) (human, UniProt P25092 24-1073); experiment: cell-based or functional assay
T3 sequence (P25092 24-1073): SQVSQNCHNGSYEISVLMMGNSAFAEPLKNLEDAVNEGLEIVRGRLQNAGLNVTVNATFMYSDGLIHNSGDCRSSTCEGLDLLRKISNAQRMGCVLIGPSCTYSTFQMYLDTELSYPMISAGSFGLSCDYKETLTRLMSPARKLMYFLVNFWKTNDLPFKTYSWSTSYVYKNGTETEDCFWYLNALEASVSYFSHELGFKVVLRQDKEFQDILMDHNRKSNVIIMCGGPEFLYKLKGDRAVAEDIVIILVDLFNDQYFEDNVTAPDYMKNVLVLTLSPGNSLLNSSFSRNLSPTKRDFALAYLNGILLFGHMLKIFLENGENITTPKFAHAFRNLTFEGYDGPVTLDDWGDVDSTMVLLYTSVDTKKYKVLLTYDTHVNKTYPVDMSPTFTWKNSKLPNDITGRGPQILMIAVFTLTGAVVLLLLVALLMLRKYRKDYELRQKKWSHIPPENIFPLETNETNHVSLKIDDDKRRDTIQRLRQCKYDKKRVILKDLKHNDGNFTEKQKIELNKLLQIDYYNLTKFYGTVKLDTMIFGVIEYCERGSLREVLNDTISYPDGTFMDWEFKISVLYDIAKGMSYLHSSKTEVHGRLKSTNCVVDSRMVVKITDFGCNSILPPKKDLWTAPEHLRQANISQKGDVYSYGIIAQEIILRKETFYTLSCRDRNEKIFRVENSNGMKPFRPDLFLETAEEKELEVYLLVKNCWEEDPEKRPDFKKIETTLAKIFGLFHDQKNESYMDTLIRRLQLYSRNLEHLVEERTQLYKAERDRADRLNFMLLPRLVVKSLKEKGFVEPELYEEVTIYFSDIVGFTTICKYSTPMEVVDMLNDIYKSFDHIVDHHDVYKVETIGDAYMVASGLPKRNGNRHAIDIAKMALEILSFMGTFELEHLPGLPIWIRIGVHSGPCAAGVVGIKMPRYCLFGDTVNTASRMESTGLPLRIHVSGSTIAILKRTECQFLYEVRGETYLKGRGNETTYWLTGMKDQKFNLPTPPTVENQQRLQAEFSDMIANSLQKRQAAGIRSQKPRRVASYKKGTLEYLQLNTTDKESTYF

[2] = molecular target: T3, human GCC, full length with myc tag …; experiment: indirect immunofluorescence flow cytometry, 293 GCC #2 cells;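 also: cells exposed to the test antibodies for 1 h on ice before flow cytometric readout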

B1: mAb 5F9 (antibody, V domains shown)
VH: QVQLQQWGAGLLKPSETLSLTCAVFGGSFSGYYWSWIRQPPGKGLEWIGEINHRGNTNDNPSLKSRVTISVDTSKNQFALKLSSVTAADTAVYYCARERGYTYGNFDHWGQGTLVTVSS
VL: EIVMTQSPATLSVSPGERATLSCRASQSVSRNLAWYQQKPGQAPRLLIYGASTRATGIPARFSGSGSGTEFTLTIGSLQSEDFAVYYCQQYKTWPRTFGQGTNVEIK
notes: Human; hybridoma product is IgG2, kappa; also called 46.5F9.8.2; Prep A 5F9
- binding result (rat GCC): no binding
- binding result (mouse GCC): no binding
- LD50, indirect cytotoxicity with DM1-conjugated mouse anti-human IgG, 293-GCC#2 cells, WST after 4 days [1]: 26 pM
- MFI at 0.001 µg/ml [2]: 500
- MFI at 0.004 µg/ml [2]: 937
- MFI at 0.016 µg/ml [2]: 2460
- MFI at 0.063 µg/ml [2]: 6620
- MFI at 0.25 µg/ml [2]: 7820
- MFI at 1 µg/ml [2]: 8030
